To fix the notation:
B1: P043.A.00023.E05 (antibody, V domains shown)
VH: QSLEESGGRLVTPGTPLTLTCTVSGFSLSSYAMSWVRQAPGKGLEWIGIISSSGSTYYASWAKGRFTISKTSTTVDLKITSPTTEDTATYFCARDASSRGYYYYYGMDPWGPGTLVTVSS
VL: AIQMTQSPSSLAASVGDTVTITCKASEDIGYGLNWYQQKLGIAPKLLIYGANTLESGVPSRFSGSGSETDYTLTISSVQAEDAGIYYCQQGYSTPLTFGAGTKVEIK
notes: also called 443; protein sample ID 443
B2: P043.A.00092.C12 (antibody, V domains shown)
VH: QEELKETGGGLVQPGGSLTLSCKASGFDFSSYYMSWVRQAPGKGLEWIGVIYASKGSTDYASWVNGRFTISSDNAQNTVDLQMNSLTAADTATYYCARSKRFYTYGYAGYAYAHYYYGMDLWGPGTLVTVSS
VL: AIQMTQSPSSLAASVGDTVTITCKASEDIGYGLNWYQQKLGIAPKLLIYGADTLESGVPSRFSGSGSETDYTLTISSVQAEDAGIYYCQQGYSTPLTFGAGTKVEIK
notes: also called 472; protein sample ID 472
B3: P043.A.00023.A08 (protein sample ID 446) (antibody, V domains shown)
VH: QSVEESGGRLVTPGTPLTLTCTVSGFSLSKYAMSWVRQAPGKGLEWIGIISSGGSTYYASWAKGRFTISKTSSTTVDLKITSPTTEDTATYFCARAGYPGYSPHYFNIWGPGTLVTVSL
VL: AIQMTQSPSSLAASVGDTVTITCKASEDIGYELNWYQQKLGIAPKLLIYGANTLESGVPSRFTGSGSETDYTLTISSVQAEDAGIYYCQQGYSTPPTFGAGTKVEIK
B4: P043.A.00017.E04 (antibody, V domains shown)
VH: QSVEESGGRLVTPGTPLTLTCTVSGFSLNNYAMNWVRQAPGKGLEWIGIISSSGNTYYANWAKGRFTISKTSTTVDLKITSPTTEDTATYFCARDSYPGYSPYYGMDPWGPGTLVTVSS
VL: AIQMTQSPSSLAASVGDTVTITCKASEDIAYGLNWYQQKLGITPKLLIYGANTLESGVPSRFSGSGSETHYTLTISSVQAEDAGIYYCQQGYNTPPTFGAGTKVEIK
B5: P043.A.00017.E07 (protein sample ID 449) (antibody, V domains shown)
VH: QSVEESGGRLVTPGTPLTLTCTVSGFSLSSYAMSWVRQAPGKGLEWIGIISSSGSTYYASWAKGRFTISKTSTTVDLKITSPTTEDTATYFCARAMYPGYSTGVYNIWGPGTLVTVSL
VL: AIQMTQSPSSLAASVGDTVTITCKASEDIGYELNWYQQKLGIAPKLLIYGANTLESGVPSRFSGSGSETDYTLTISSVQAEDAGIYYCQQGYNTPNTFGAGTKVEIK
B6: P043.A.00097.B02 (antibody, V domains shown)
VH: QELVESGGGLVQAGESLKLSCKASGIDFSSYGISWVRQAPGKGLEWIAYIYPGFGITNYANSVKGRFTISSDNAQNTVFLQMTSLTASDTATYFCTRAYASSSGYYIHYFNLWGPGTLVTVSS
VL: AIQMTQSPSSLAASVGDTVTITCKASEDIGYGLNWYQQKLGIAPKLLIYGANTLESGVPSRFSGSGSETDYTLTISSVQAEDAGIYYCQQAYSTPLTFGAGTKVEIK
B7: P043.A.00020.D06 (protein sample ID 444) (antibody, V domains shown)
VH: QSVEESGGRLVTPGTPLTLTCTVSGFSLSSYAMNWVRQAPGKGLEWIGIISSSGSTYYASWAKGRFTISKTSTTVDLKITSPTTEDTATYFCARVGAGYAGYGYDNYYGMDPWGPGTLVTVSS
VL: AIQMTQSPSSLAASVGDTVTITCKASEDIGYGLNWYQQKLGIAPKLLIYGANTLESGVPSRFSGSGSETDYTLTISSVQAEDAGIYYCQQGYSTPLTFGAGTKVEIK
B8: P043.A.00024.C11 (protein sample ID 451) (antibody, V domains shown)
VH: QSVEESGGRLVTPGTPLTLTCTVSGFSLSSYAMSWVRQAPGKGLEWIGIISSSGTTYYASWAKGPFTISKTSTTVDLKITSPTTEDTATYFCARGGAGYGYAHYYGMDPWGPGTLVTVSS
VL: AIQMTQSPSSLAASVGDTVTITCKASEDIGYGLNWYQQKLGIAPKLLIYGANTLESGVPSRFSGSGSETDYTLTISSVQAEDAGIYYCQQGYSTPLTFGAGTKVEIK
B9: P043.A.00018.C02 (protein sample ID 450) (antibody, V domains shown)
VH: QSVEESGGRLVTPGTPLTLTCTVSGFSLSSYAMSWVRQAPGKGLEWIGIINSGRSTYYASWAKGRFTISKTSTTVDLKITSPTTEDTATYFCARDATSIGYYRYYGMDPWGPGTLVTVSS
VL: AIQMTQSPSSLAASVGDTVTITCKASEDIGYGLNWYQQKLGIAPKLLIYGANTLESGVPSRFSGSGSETDYTLTISSVQAEDAGIYYCQQGYSTPLTFGAGTKVEIK
B10: P043.A.00047.H08 (protein sample ID 447) (antibody, V domains shown)
VH: QSLEESGGDLVKPGASLTLTCTASGFSFSSDGMCWVRQAPGKGLEWIACIAAGSSGSTYYATWAQGRFTISKSSSTTVTLQMTSLTAADTATYFCAGEDYTGNNYYALWGPGTLVTVSS
VL: AIDMTQTPSPVSAVVGDTVTINCQASENIYSFLAWYQQKPGQPPKLLIYFASKLASGVPSRFKGSGSGTQFTLTISDVHSDDAAIYYCQQTGTYSDADNTFGGGTEVVVK
notes: also called antibody with the Protein sample ID 447
B11: P043.A.00095.D06 (protein sample ID 470) (antibody, V domains shown)
VH: QEQLEESGGDLVKPEGSLTLTCTASGFSFSSNYWICWVRQAPGKGLEWIGCIYIGSGDTYYASWAKGRFTISKTSSTTVTLQMTSLTAADTATYFCARSYTPGSYYNMNLWGPGTLVTVSS
VL: DVVMTQTPSSVSAAVGGTVTINCQASQQISNELSWYQQKSGQPPKLLIYDASDLASGVPSRFKGSGSGTEFTLTISDLESADAATYYCQSTGGASSDGNAFGGGTEVVVK
notes: also called S1 targeting antibody 470; anti-S1-antibody 470
B12: P043.A.00032.C04 (antibody, V domains shown)
VH: QSLEESGGRLVTPGTPLTLTCTASGFSLSSYWMSWVRQAPGKGLEWIGIIYVSGSTYYASWAKGRFTISKTSTTVDLKMTSLTTEDTATYFCARVDYSTGWPLFNIWGPGTLVTVSL
VL: AQVLTQTASPVSAAVGGTVTINCQSSQSVYDNNWLGWYQQKPGQPPKLLIYGASILASGVPSRFKGSGSGTQFTLTISDLESDDAATYYCQGGCSGNTFVFGGGTEVVVK
notes: also called 452; protein sample ID 452
B13: 408: Antibody anti-S1 antibody (LS) (antibody)
heavy: not shown
light: […]
B14: P043.A.00036.C07 (antibody, V domains shown)
VH: QSLEESGGDLVKPGASLTLTCTASGFSFSSSYWICWVRQAPGKGLEWIGCIYTGSGSTWYASWAKGRFTISKTSSTTVTLQMTSLTAADTATYFCARGYGSYMYDFWGPGTLVTVSS
VL: DVVMTQTPASVEAAVGGTVTIKCQASQSISTALAWYQQKPGQPPKLLIYSASTLESGVPSRFKGSGSGTEFTLAISDLESADAATYYCQGADGSSSSFGGGTEVVVK
notes: also called 448; protein sample ID 448
B15: P043.A.00109.B12 (antibody, V domains shown)
VH: QSLEESGGGLVKPEGSLTLTCKASGFDLNTYYYMCWVRQAPGKGLEWIACIATSDSGHTAYASWARGRFTISKTSSTTVTLQMTGLTAADTATYFCARGGRSVGDGVDLWGPGTLVTVSS
VL: DIVMTQTPASVEAAVGGTVTIKCQASQSISSWLAWYQQKPGQPPKLLIYDASDLASGVPSRFKGSGSGTEFTLTISDLESADAATYYCQSYLYVESGSHGFGFGGGTEVVVR
notes: also called 468; protein sample ID 468
B16: P043.A.00117.C08 (protein sample ID 469) (antibody, V domains shown)
VH: QSLEESGGGLVKPEGSLTLTCKASGFDLNTYYYMCWVRQAPGKGLEWIACIGTSDSGHTAYASWARGRFTISKTSSTTVTLQMTGLTAADTATYFCARGGRSVGDGVDLWGPGTLVTVSS
VL: DIVMTQTPASVEAAVGGTVTIKCQASQSISSWLAWYQQKPGQPPKLLIYDAFDLASGVPSRFKGSGSGTEFTLTISDLESADAATYYCQSYLYGESGSHGFGFGGGTEVVVR

The assay addresses SARS-CoV-2 S1 protein (HIS tag, active trimer; Acro Biosystems #SPN-C52H8) (SARS-CoV-2, UniProt P0DTC2 16-1213). The experiment in a line: ELISA on coated S active trimer.
Turning to B1, the EC50 came to 9 ng/mL.

Consider B2, for which a half-maximal effect (EC50) was put at 10.6 ng/mL.

B3 yielded an EC50 of 5.6 ng/mL.

Molecule B4 came in with an EC50 of 6.4 ng/mL.

Molecule B5 registered an EC50 of 6.6 ng/mL.

On to B6, for which the EC50 turned out to be 6.9 ng/mL.

On to B7, for which the EC50 was found to be 11.2 ng/mL.

For B8, the EC50 stood at 8.8 ng/mL.

Turning to B9, it took 6.6 ng/mL to reach a half-maximal effect (EC50).

For B10, the EC50 turned out to be 9.1 ng/mL.

Turning to B11, a half-maximal response (EC50) required 6.9 ng/mL.

B12 registered an EC50 of 8.2 ng/mL.

B13 displayed an EC50 of 25.6 ng/mL.

B14 showed an EC50 of 7.7 ng/mL.

As to B15, the midpoint of the response, the EC50, lay at 10 ng/mL.

B16 registered an EC50 of 7.8 ng/mL.

(Values after patent US20230287088A1 (BIONTECH, published 2023).)
